Measured values reported in PMC5913840.
pKd: −log10 of the molar value.

Key:
[1] = system: SavR (Staphylococcus aureus (NCTC8325?)); experiment: ITC; details: EMSA: 20 mM Tris-HCl pH 8.0, 100 mM NaCl, 25 C, 20 min; footprinting: same plus 5 mM MgCl2, 1 mM CaCl2, 25 C 30 min; ITC: 20 mM Tris-HCl pH 8.0, 100 mM NaCl …
[2] = target: SavR;SavS (Staphylococcus aureus (NCTC8325?);Staphylococcus aureus (NCTC8325?)) (UniProt Q2FVF8); experiment: ITC; details: EMSA: 20 mM Tris-HCl pH 8.0, 100 mM NaCl, 25 C, 20 min; footprinting: same plus 5 mM MgCl2, 1 mM CaCl2, 25 C 30 min; ITC: 20 mM Tris-HCl pH 8.0, 100 mM NaCl …

With “TACGCTAATTATAGCGTACGCACTTGAGTACGTCAA (double strand) [36-bp savRS operator]” the pKd [1] was 5.04 and the pKd [2] was 7.57.
